Source: patent US20220025008A1 (FAPON BIOTECH, published 2022)

T1: Recombinant NT antigen (N-terminal pro-brain natriuretic peptide, NT-proBNP) (human, UniProt P16860 27-102)
T1 construct: domain: N-terminal pro-brain natriuretic peptide (NT-proBNP); also called recombinant NT protein; N-terminal pro-B-type natriuretic peptide
T1 sequence (looked up): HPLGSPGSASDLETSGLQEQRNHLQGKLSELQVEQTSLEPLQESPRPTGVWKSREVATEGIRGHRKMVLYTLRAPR

B1: Mutation 1-22 (antibody, V domains shown)
VH: QVRLQESGPSQVKPAQTLSLTCAISGFSLTTYYLDWVRHTPGKPPEWLAQMTKDGNAVHNPTIRSRLSITRDTSKSQVFLKLTGVTTEDTAVYYCVRGVIDWGPGLLVTVSS
VL: QAVLTQPSSVSRSLGQTVSITCSGSSDQVGFGDYLNWFQLIPGSAPKTLIFGAYSRLRGVPDRFSGSRSGNTATLTINSLQAEDEADYYCGSANSRNYVFGSGTRLTVLS
B2: Mutation 1-39 (antibody)
heavy: QVRLQESGPSQVKPAQTLSLTCAISGFSLTTYYIDWVRHTPGKPPEWLAQMTKDGNAVHNPTLRSRLSITRDTSKSQVFLKLTGVTTEDTAVYYCVRGLIDFGPGLLVTVSSASTTPPKVYPLTSCCGDTSSSIVTLGCLVSSYMPEPVTVTWNSGALTSGVHTFPAILQSSGLYSLSSVVTVPASTSGAQTFICNVAHPASSTKVDKRVEPGCPDPCKHCRCPPPELPGGPSVFIFPPKPKDTLTISGTPEVTCVVVDVGQDDPEVQFSWFVDNVEVRTARTKPREEQFNSTFRVVSALPIQHQDWTGGKEFKCKVHNEGLPAPIVRTISRTKGQAREPQVYVLAPPQEELSKSTLSVTCLVTGFYPDYIAVEWQKNGQPESEDKYGTTTSQLDADGSYFLYSRLRVDKNSWQEGDTYACVVMHEALHNHYTQKSISKPPGK
light: QAVLTQPSSVSRSLGQTVSITCSGSSDNVGFGDYVNWFQLIPGSAPKTLIFGAYSRIRGVPDRFSGSRSGNTATLTINSLQAEDEADYYCGSGNSRNYVFGSGTRLTVLSQPKSAPSVTLFPPSKEELDTNKATVVCLISDFYPGSVNVVWKADGSTINQNVKTTQASKQSNSKYAASSYLTLTGSEWKSKSSYTCEVTHEGSTVTKTVKPSECS
B3: Mutation 1-34 (antibody, V domains shown)
VH: QVRLQESGPSQVKPAQTLSLTCAISGFSVTTYYLDWVRHTPGKPPEWLAQMTKDGNAVHNPTIRSRLSITRDTSKSQVFLKLTGVTTEDTAVYYCVRGVIDWGPGLLVTVSS
VL: QAVLTQPSSVSRSLGQTVSITCSGSSDQVGFGDYLNWFQLIPGSAPKTLIFGAYSRLRGVPDRFSGSRSGNTATLTINSLQAEDEADYYCGSANSRNYVFGSGTRLTVLS
B4: Mutation 1-25 (antibody)
heavy: QVRLQESGPSQVKPAQTLSLTCAISGFSVTTYYLDWVRHTPGKPPEWLAQMTKDGNAVHNPTIRSRLSITRDTSKSQVFLKLTGVTTEDTAVYYCVRGIIDFGPGLLVTVSSASTTPPKVYPLTSCCGDTSSSIVTLGCLVSSYMPEPVTVTWNSGALTSGVHTFPAILQSSGLYSLSSVVTVPASTSGAQTFICNVAHPASSTKVDKRVEPGCPDPCKHCRCPPPELPGGPSVFIFPPKPKDTLTISGTPEVTCVVVDVGQDDPEVQFSWFVDNVEVRTARTKPREEQFNSTFRVVSALPIQHQDWTGGKEFKCKVHNEGLPAPIVRTISRTKGQAREPQVYVLAPPQEELSKSTLSVTCLVTGFYPDYIAVEWQKNGQPESEDKYGTTTSQLDADGSYFLYSRLRVDKNSWQEGDTYACVVMHEALHNHYTQKSISKPPGK
light: QAVLTQPSSVSRSLGQTVSITCSGSSDQVGFGDYLNWFQLIPGSAPKTLIFGASSRLRGVPDRFSGSRSGNTATLTINSLQAEDEADYYCGSPNSRNYVFGSGTRLTVLSQPKSAPSVTLFPPSKEELDTNKATVVCLISDFYPGSVNVVWKADGSTINQNVKTTQASKQSNSKYAASSYLTLTGSEWKSKSSYTCEVTHEGSTVTKTVKPSECS
B5: Mutation 1-27 (antibody)
heavy: QVRLQESGPSQVKPAQTLSLTCAISGFSITTYYIDWVRHTPGKPPEWLAQMTKDGNAVHNPTLRSRLSITRDTSKSQVFLKLTGVTTEDTAVYYCVRGLIDFGPGLLVTVSSASTTPPKVYPLTSCCGDTSSSIVTLGCLVSSYMPEPVTVTWNSGALTSGVHTFPAILQSSGLYSLSSVVTVPASTSGAQTFICNVAHPASSTKVDKRVEPGCPDPCKHCRCPPPELPGGPSVFIFPPKPKDTLTISGTPEVTCVVVDVGQDDPEVQFSWFVDNVEVRTARTKPREEQFNSTFRVVSALPIQHQDWTGGKEFKCKVHNEGLPAPIVRTISRTKGQAREPQVYVLAPPQEELSKSTLSVTCLVTGFYPDYIAVEWQKNGQPESEDKYGTTTSQLDADGSYFLYSRLRVDKNSWQEGDTYACVVMHEALHNHYTQKSISKPPGK
light: QAVLTQPSSVSRSLGQTVSITCSGSSDNVGFGDYVNWFQLIPGSAPKTLIFGASSRIRGVPDRFSGSRSGNTATLTINSLQAEDEADYYCGSANSRNYVFGSGTRLTVLSQPKSAPSVTLFPPSKEELDTNKATVVCLISDFYPGSVNVVWKADGSTINQNVKTTQASKQSNSKYAASSYLTLTGSEWKSKSSYTCEVTHEGSTVTKTVKPSECS
B6: Mutation 1-31 (antibody)
heavy: QVRLQESGPSQVKPAQTLSLTCAISGFSLTTYYLDWVRHTPGKPPEWLAQMTKDGNAVHQPTVRSRLSITRDTSKSQVFLKLTGVTTEDTAVYYCVRGIIDFGPGLLVTVSSASTTPPKVYPLTSCCGDTSSSIVTLGCLVSSYMPEPVTVTWNSGALTSGVHTFPAILQSSGLYSLSSVVTVPASTSGAQTFICNVAHPASSTKVDKRVEPGCPDPCKHCRCPPPELPGGPSVFIFPPKPKDTLTISGTPEVTCVVVDVGQDDPEVQFSWFVDNVEVRTARTKPREEQFNSTFRVVSALPIQHQDWTGGKEFKCKVHNEGLPAPIVRTISRTKGQAREPQVYVLAPPQEELSKSTLSVTCLVTGFYPDYIAVEWQKNGQPESEDKYGTTTSQLDADGSYFLYSRLRVDKNSWQEGDTYACVVMHEALHNHYTQKSISKPPGK
light: QAVLTQPSSVSRSLGQTVSITCSGSSDNVGFGDYLNWFQLIPGSAPKTLIFGATSRLRGVPDRFSGSRSGNTATLTINSLQAEDEADYYCGSGNSRNYVFGSGTRLTVLSQPKSAPSVTLFPPSKEELDTNKATVVCLISDFYPGSVNVVWKADGSTINQNVKTTQASKQSNSKYAASSYLTLTGSEWKSKSSYTCEVTHEGSTVTKTVKPSECS
B7: Mutation 1-37 (antibody)
heavy: QVRLQESGPSQVKPAQTLSLTCAISGFSITTYYLDWVRHTPGKPPEWLAQMTKDGNAVHNPTIRSRLSITRDTSKSQVFLKLTGVTTEDTAVYYCVRGIIDFGPGLLVTVSSASTTPPKVYPLTSCCGDTSSSIVTLGCLVSSYMPEPVTVTWNSGALTSGVHTFPAILQSSGLYSLSSVVTVPASTSGAQTFICNVAHPASSTKVDKRVEPGCPDPCKHCRCPPPELPGGPSVFIFPPKPKDTLTISGTPEVTCVVVDVGQDDPEVQFSWFVDNVEVRTARTKPREEQFNSTFRVVSALPIQHQDWTGGKEFKCKVHNEGLPAPIVRTISRTKGQAREPQVYVLAPPQEELSKSTLSVTCLVTGFYPDYIAVEWQKNGQPESEDKYGTTTSQLDADGSYFLYSRLRVDKNSWQEGDTYACVVMHEALHNHYTQKSISKPPGK
light: QAVLTQPSSVSRSLGQTVSITCSGSSDQVGFGDYLNWFQLIPGSAPKTLIFGATSRLRGVPDRFSGSRSGNTATLTINSLQAEDEADYYCGSANSRNYVFGSGTRLTVLSQPKSAPSVTLFPPSKEELDTNKATVVCLISDFYPGSVNVVWKADGSTINQNVKTTQASKQSNSKYAASSYLTLTGSEWKSKSSYTCEVTHEGSTVTKTVKPSECS

Target: T1, Recombinant NT antigen (N-terminal …)
Test: indirect ELISA, KD calculated from half-max OD at 4 coating concentrations
Experimental: Recombinant NT antigen was diluted with coating solution to 1 μg/ml a microplate overnight at 4° C.; which was washed twice with washing solution and patted dry on the next day; with addition of blocking solution (20% BSA+80% PBS) at 120 μL per well at 37° C. for 1 h and patted dry; added the diluted NT monoclonal antibody, 100 μL/well at 37° C. for 30 min (partial supernatant for 1 h); washed 5 times with washing solution and patted dry; added rabbit anti-goat IgG-HRP […] per well at 37° C. for 30 min; washed 5 times with washing solution and patted dry; added color developing solution A (50 μL/well), added color developing solution B (50 μL/well) for 10 min; added stop solution, 50 μL/well; followed by reading the OD value at 450 nm (reference 630 nm) on the microplate reader.
Data from the enzyme immunoassay indirect method were analyzed in the same way as the activity identification, with four gradients of 3 μg/ml, 1.5 μg/ml, 0.75 μg/ml and 0.375 μg/ml for coating; the antibody was diluted from 1000 ng/ml by 2 times to 0.977 ng/ml for loading sample. OD values corresponding to different antibody concentrations at different coating concentrations were obtained. Under the same coating concentration, data were plotted logarithmically with the antibody concentration as the abscissa and the OD value as the ordinate.

For B1, which Kd is on record?
Its Kd is 2.07 nM.

B2 was tested. Which Kd did it give?
Its Kd is 2.45 nM.

With B3 as the binder, how does the Kd read?
The Kd was 3.12 nM.

How did the Kd turn out when B4 was run?
Its Kd is 2.16 nM.

With B5 as the binder, how does the Kd read?
Its Kd is 0.855 nM.

Which Kd does the source give for B6 here?
The Kd was 1.84 nM.

With B7 as the binder, how does the Kd read?
Its Kd is 1.57 nM.
